Reference: patent publication EP4786492A1

B1: mab008 scFv-hFc (Fc fusion, not shown: small tags and cut ends; a dimerising Fc or GST)
scFv (part 1 of 2): DIVMTQSQKFMSTSVGDRVSITCKASQNVGTAVAWYQQKPGQSPKLLIFSASIRYTGVPDRFTGSGSGTDFTLTISNMQSEDLADYFCQQYSSSPYTFGGGTKLEIK
scFv (part 2 of 2): EVQLQQSGPVLVKPGASVKMSCKASGYTFTDYYMNWVKRSHGKSLEWIGIINPYNGGTSYNQKFRGKATLTVDKSSNTAYMELNSLTSEDSAVYYCSRYDYDYDVEGAMDYWGQGTSVTVSS
B2: mab005 scFv-hFc (Fc fusion, not shown: small tags and cut ends; a dimerising Fc or GST)
scFv (part 1 of 2): DIVLTQSPATLSVTPGDSVSLSCRASQSVSNDLHWYQQKSHESPRLLIKYASQSISGIPSRFSGSGSGTDFTLTINSVETEDFGMYFCQQSNNWPYTFGGGTKLEMK
scFv (part 2 of 2): QVQLQQSGAELMKPGASVTLSCKATGYTLPGYWIEWVKQRPGHGLEWIGEILPGSSSANYNEKFKGKATFTADTSSNTAYMQLSSLTTEDSAIYYCASTYGTSLDYWGQGTTLTVSS
B3: mab007 scFv-hFc (Fc fusion, not shown: small tags and cut ends; a dimerising Fc or GST)
scFv (part 1 of 2): DVQITQSPSYLAASPGETITINCRASTSISKYLAWYQERPGKTNKLLIYSGSTLQSGIPSRFRGSGSGTDFTLTISSLEPEDFAMYYCQQHHVYPYTFGGGTKLEIK
scFv (part 2 of 2): QVQLQQPGAELVRPGTSVKLSCKASGYTFTSYWMHWVKQRPGQGLEWIGVIDPSDSLANYNQEFKGKATLTVDTSSSTAYMQLSSLTSEDSAVYYCARDSTVVAPMDYWGQGTSVTVSS

Experiments:
[1] = target: human DLL3 endogenously expressed on SHP77 and NCI-H82 cells (human) (UniProt Q9NYJ7); assay: FACS SHP77 cells, 4 nM
[2] = target: human DLL3 endogenously expressed on SHP77 and NCI-H82 cells (human) (UniProt Q9NYJ7); assay: FACS SHP77 cells, 20 nM
[3] = target: human DLL3 endogenously expressed on SHP77 and NCI-H82 cells (human) (UniProt Q9NYJ7); assay: FACS SHP77 cells, 0.8 nM
[4] = target: human DLL3 endogenously expressed on SHP77 and NCI-H82 cells (human) (UniProt Q9NYJ7); assay: FACS SHP77 cells, 100 nM
[5] = target: human DLL3 endogenously expressed on SHP77 and NCI-H82 cells (human) (UniProt Q9NYJ7); assay: FACS SHP77 cells, 0.16 nM
[6] = target: human DLL3 endogenously expressed on SHP77 and NCI-H82 cells (human) (UniProt Q9NYJ7); assay: FACS SHP77 cells, 0.032 nM
[7] = target: human DLL3 endogenously expressed on SHP77 and NCI-H82 cells (human) (UniProt Q9NYJ7); assay: FACS SHP77 cells, 0.0064 nM
[8] = target: human DLL3 endogenously expressed on SHP77 and NCI-H82 cells (human) (UniProt Q9NYJ7); assay: FACS SHP77 cells, 0.00128 nM

Sequence of human DLL3 endogenously expressed on SHP77 and NCI-H82 cells (human) (Q9NYJ7 27-618): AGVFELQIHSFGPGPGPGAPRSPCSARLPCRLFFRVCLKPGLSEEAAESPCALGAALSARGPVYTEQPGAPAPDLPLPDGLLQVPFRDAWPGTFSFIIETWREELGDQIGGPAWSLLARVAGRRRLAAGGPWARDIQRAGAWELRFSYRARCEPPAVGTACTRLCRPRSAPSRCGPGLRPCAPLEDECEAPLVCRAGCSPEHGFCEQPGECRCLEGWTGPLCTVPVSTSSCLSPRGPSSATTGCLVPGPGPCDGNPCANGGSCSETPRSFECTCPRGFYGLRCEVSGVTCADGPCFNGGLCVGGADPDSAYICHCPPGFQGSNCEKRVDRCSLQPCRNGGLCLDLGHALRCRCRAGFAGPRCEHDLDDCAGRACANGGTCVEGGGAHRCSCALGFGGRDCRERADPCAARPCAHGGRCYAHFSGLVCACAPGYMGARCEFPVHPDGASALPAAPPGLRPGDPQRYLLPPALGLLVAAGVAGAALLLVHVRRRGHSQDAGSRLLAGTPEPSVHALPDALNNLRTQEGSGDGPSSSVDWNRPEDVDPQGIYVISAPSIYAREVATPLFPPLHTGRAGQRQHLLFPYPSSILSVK

| Binder | MFI [1] [MFI] | MFI [2] [MFI] | MFI [3] [MFI] | MFI [4] [MFI] | MFI [5] [MFI] | MFI [6] [MFI] | MFI [7] [MFI] | MFI [8] [MFI] |
| --- | --- | --- | --- | --- | --- | --- | --- | --- |
| B1 | 365 | 468 | 208 | 412 | 130 | 98 | 90 | 82 |
| B2 | 451 | 486 | 404 | 543 | 287 | 172 | 125 | 117 |
| B3 | 563 | 634 | 525 | 521 | 406 | 227 | 135 | 103 |
